Laboratory results as given in paper PMC4387560 (Cell Research, 2015).

Target: T1, Scp1-WD40 (residues 567-1085) (S. pombe, UniProt O43043 567-1085)
T1 sequence (looked up): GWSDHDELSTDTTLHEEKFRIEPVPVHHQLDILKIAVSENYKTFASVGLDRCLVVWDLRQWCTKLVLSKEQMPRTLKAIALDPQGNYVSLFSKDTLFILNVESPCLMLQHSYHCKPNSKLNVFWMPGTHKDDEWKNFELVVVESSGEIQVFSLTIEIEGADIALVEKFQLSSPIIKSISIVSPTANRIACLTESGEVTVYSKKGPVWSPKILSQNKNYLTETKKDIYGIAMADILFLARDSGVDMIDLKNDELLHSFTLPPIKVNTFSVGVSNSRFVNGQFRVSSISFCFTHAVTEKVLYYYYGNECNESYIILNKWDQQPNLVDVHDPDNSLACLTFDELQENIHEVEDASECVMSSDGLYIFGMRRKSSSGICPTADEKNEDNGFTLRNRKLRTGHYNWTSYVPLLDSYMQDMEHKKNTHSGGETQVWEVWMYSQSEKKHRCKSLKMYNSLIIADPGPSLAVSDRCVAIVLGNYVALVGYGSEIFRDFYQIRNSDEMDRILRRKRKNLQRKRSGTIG
Assay: pull-down

B1: MBP-fused regulatory domain of Sre1 (residues 628-900) (domain or fragment, S. pombe, UniProt Q9UUD1 628-900, looked up)
chain: QHSKSSVHAELRELPECTANLIENSHADDVFSPNMVERLWVLAKCTRDSAQMSDSIISSLSDVLVLSPLEVLASWYAADLLDALLMESLSRKVEISEIEEIISLCPKNSSIIRHALLAKLVLFPENTADSLNEVLAAYKNTLDLCSQDKRKQSSVLKINLSKLFTLHSCLSLALQRLGYGDVSKRMYQEIFVPDSDADITPLSFIISWTALNTFAPICTSPKENDVVEKMAMYVRTAIGTLKIQDLKLSRKLINSCIDIGSRLQEDLGYVSSA
B1: binds.
